Results as given in the domain aggregation screens of Martell et al. (2025).

experiment: soluble fraction after stress (log2 fold change); higher = more stays soluble; pooled small domains, quantitative proteomics; conditions: stress: 50 degC
Method in brief: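 The measure of aggregation propensity here is the base-two logarithm of the fold change in the soluble amount of each protein after stress. A higher value means more of that protein stays in solution. Stress was applied at 50°C to pooled libraries of small protein domains, read out by high-throughput quantitative proteomics.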

Sequence	soluble fraction (log2)
HMTEKMILKWKEALERMNDDFTTKDWLNVVIHEMGKSERTAYGWLSDMKRSGIIKDLGYGSWLKVLE	-0.738
HMKTGNPYAQRNTADMYNYGRGIEKDSYLAFVWYFAAYKQGNDNAKPQIDSITASGHLSPNQQLHAKIE	-0.464
HMQSISLEEAKSAALDDAQLGIDEVEFLKTERNTDGDTSYYDIQFLVNGTIYKYQINTETGAILHVDYEA	-0.052
HMAVPTHVEFPVVGLQRSGITSLEQAIATVPGVSKAVVNVSDNRIFVDYDPTRSKVSDLLEVVRGAGFTP	-0.000584
HMKRSFGSVRQLRSGNYQARYTGPDTVRHTSPVTYTSKMDAEAWLVDERRKISSGTWTPPAR	0.0133
HMIEEIPYSQFMSMLEEGKIDKAEIYQDSIIFSTKPDEQGKAGYYSIAYMKDNVLADRLYDAGVEFTPII	-0.156
HMAHLSPNDAARLVGVSRPLLNQILDEGRITFFETAGGHRKIKLAAVLAYIKERDEVAAQLAAART	-0.746
HMGGEPKALLFAGVETREMAEITQRLEAADIPYEIREDGGSIYVARSEVFNARMMLSADGLPS	-0.109
HMATSNGEFVIPDGGLQFEELERSLLMQALKKSGGSQTGAARLLGLSRDTLRYRLEKFGIDAAAVRE	-0.165
HMSAVVAPLPGLIQNILVKVGDTVHAGQHVLTMEAMKMENEIQTNRDGIIKDIKVRIGDSVNEGDTLIIL	-0.0224
HMRFKPLAEILAAVQTRYAGRVLDVELDRDQAGRNVYEVKLLAADGSRREIHIDAVTGKEVSL	-0.0325
HMKQLIGYSVIDIKMGKLGEISFVNSKTAQALIHVSKDGKGFYFPWHKQFVKNIDAEKGIMEVEIPKEFLD	-0.237
HMTPVFGEEETVLQAAVRGIISDTDQWTMEAEAKSMLNQLGFSDYEEKMAHMSGGQKKRVALVNALLTP	0.0128
HMRIDSFEDARRRFEYDYLTRLLKLTQGSVTQAAKLAKRNRTEFYKLLQRHGIEAAHFKPTS	-0.581
HMKQYVEPASETEKMVVELWEKVLLTEKIGMHDDFFELGGHSLKAMRLISLYHQEFNVRLSLKSLFEKLK	-0.121
HMAFDDAHYKDMITSYLKKFKKGNRSEIENLIIPKLSEVLVEKQKKDKVKNLLQALRKDNQIRLKGKYWYL	0.135
HMNKNQGVTTTNLNFRKSASTSSLVLYTIPKNTTLDILDKLPSGWYKVKYKGLTGYVSGSYV	-1.37
HMLGDAVLRQVLETIPEDPAVDYLELRRNTGMTEADLDRVLADLENLGVINKKRTVEQVLYWRT	-0.294
HMDYGSISFINWSIEVLSVIKTRLDRGDKIIDEVSGEKYTASSFEKFVRKNFSSYIFSQVYAEDHKK	-2.55

Sequence	soluble fraction (log2)
HMHEYSDIEHRILDAAREVFIRKGYDSATMGDIALLAGMSRTSVNYYFRNKERLFEAIFEEII	-2.08
HMVIVGGDVIVHYVDTEGKKISDDVVKSGNVGEDYSTDQKTILGYRFKEVQGNTSGKFTDKTQVVTYIYT	0.404
HMKHSLNHLGLWLLPELSRRDIQLREFAHLLGTTSQGLSDLLRGQRFSSHTLAQWQLRFQEKLDEIDQAS	-1.11
HMNNENELSSIISKVLEENPAEKERFLNGEKKLAGFFMGKIMKATKGTADPKKAAQLLNEIL	0.295
HMLTNNYKNDKALRFAKNHGIHESNILKLVSLYENAPEKGFNAQSIAELLGITPRSASRILVKLLQHNLIR	-1.42
HMTNYSFIVNENFNNKRIDQVVANHYPKISRTKVNKIIKNNLLKLNGSTFNDPSAKVKLGDQIEFENL	0.389
HMNHNPSIARKISREIKRGAPPESLLNLARTVNDSYYRSLSFVSIAYSIKGKKSKELFEEAISNLT	-0.161
HMKIQISGSQRIDENVVVKVAGLSFPQSLLSLEPGQIESKLMQELPVQEVSVQRRLLPPGLDIQLVE	0.0631
HMSPSSPNQILGQYPKTKNDIILSSGRYGPYLKYNKKNYSLGNNISVEKLSLEEAVKIIDLKDKK	0.0457
HMFQPFFENLRKASIPVSLREYLTFLEGMKKGLVTYDIEAFYFLARAAMVKDERNIDKFDRAFSATFKG	-0.287
HMDNPKGNLQEAVQAKGNEPIEYRVLNVDGPDHAREFKIAVFIGGKRKGTGVGNSKKKAEEIAAEKAFKRM	0.127
HMLSDHGLNDRQIMVIAGLMNGGTVTVRSIESQYGVSLNTARADVKMLVDAGLLTETGREVNMKVYSWSGK	-2
HMNMEPNWLKWAKQLAALAQNGLTYSDNPYEIERYEHIRRIAAEMMAEGFELDTKTILELFPREKG	-2.05
HMADWTETELAALRRAYASGTTRVSYDGKSVDYGSAEDLLSRIRTLQGAASDVAADAVAAVDA	0.0524
HMKQQAYEQGKAAYQSGDWLRAVTQLGQVKEAGEKNGEVDHLLGNAYMKLGQFESAAYAYNSALEDVA	0.269
HMGQLVVHQIKGEASRLDKFLVVNIPKYSRSVWREMINNGSVQVNGRVVKPHLLVKEGDIITWSS	-0.383
HMNVDALVGQRGRVTQTFDPGLRLGRVAVGGDDWRAETTTDQPLREGDLVEVVSVESNTLIVRPIA	-0.0828
HMISFLNFVRKEIDASQLKDSTKQNHLTTIGLLQSFKPSIEFKDLNYNFITSFEKYLYDAGYQM	0.133
